This passage reports stoichiometry N results from article PMC4265266.

Where “and” joins values, the source holds several entries; their conditions need not be identical. Identical values can stand only once.

The test has as its target FLAG-tagged recombinant human butyrylcholinesterase (^FLAGBChE) (human) (UniProt P06276). In words: non-reducing SDS-PAGE with immuno.

With “FLAG-tagged recombinant human butyrylcholinesterase (^FLAGBChE) (from UniProt P06276 29-602) (enzyme)”, the stoichiometry N is 2 and 4.
